Article PMC12684077

Biological target: RSV prefusion F (PR-DM) (respiratory syncytial virus A) (UniProt P03420)
Experiment: cryo-EM structure

## RSV prefusion F (PR-DM) (from UniProt P03420) (complex)
  stoichiometry N: 3
